Laboratory results reported in the supplement of paper PMC5998384.

Experiments:
HeLa Kyoto [1] = test: solubility in G1/S (NP-40 vs SDS abundance) (log2 ratio); higher = more soluble; conditions: cell cycle stage: G1/S
HeLa Kyoto [2] = test: melting temperature (median over replicates), in situ; higher = more thermally stable
HeLa Kyoto [3] = test: solubility change mitosis vs G1/S (difference of NP-40 vs SDS log2 ratios) (log2 ratio difference); higher = more soluble in mitosis
HeLa Kyoto [4] = test: thermal stability score vs G1/S (z-score of summed log2 fold changes over temperatures); higher = more thermally stable than in G1/S
[5] = cell cycle stage: early G1 (4.5 h after nocodazole release)
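Wherever melting temperature (median over replicates), in situ is given: HeLa Kyoto cells synchronized by double thymidine or nocodazole block, proteins quantified by TMT10plex mass spectrometry, three independent biological replicates.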
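Wherever solubility change mitosis vs G1/S (difference of NP-40 vs SDS log2 ratios) is given: synchronized HeLa Kyoto cells (double thymidine block for G1/S, nocodazole release for mitosis), protein amounts in NP-40 versus SDS lysates quantified by mass spectrometry, three biological replicates.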
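Wherever solubility in G1/S (NP-40 vs SDS abundance) is given: HeLa Kyoto cells arrested at G1/S by double thymidine block, proteins quantified by TMT10plex mass spectrometry in mild NP-40 versus SDS extracts, three biological replicates.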
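Wherever thermal stability score vs G1/S (z-score of summed log2 fold changes over temperatures) is given: synchronized HeLa Kyoto cells, proteins quantified by TMT10plex mass spectrometry, three biological replicates, mitosis taken 0.5 h after nocodazole release, G1/S directly after double thymidine block.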

For “MASGAGGVGGGGGGKIRTRRCHQGPIKPYQQGRQQHQGILSRVTESVKNIVPGWLQRYFNKNEDVCSCSTDTSEVPRWPENKEDHLVYADEESSNITDGRITPEPAVSNTEEPSTTSTASNYPDVLTRPSLHRSHLNFSMLESPALHCQPSTSSAFPIGSSGFSLVKEIKDSTSQHDDDNISTTSGFSSRASDKDITVSKNTSLPPLWSPEAERSHSLSQHTATSSKKPAFNLSAFGTLSPSLGNSSILKTSQLGDSPFYPGKTTYGGAAAAVRQSKLRNTPYQAPVRRQMKAKQLSAQSYGVTSSTARRILQSLEKMSSPLADAKRIPSIVSSPLNSPLDRSGIDITDFQAKREKVDSQYPPVQRLMTPKPVSIATNRSVYFKPSLTPSGEFRKTNQRIDNKCSTGYEKNMTPGQNREQRESGFSYPNFSLPAANGLSSGVGGGGGKMRRERTRFVASKPLEEEEMEVPVLPKISLPITSSSLPTFNFSSPEITTSSPSPINSSQALTNKVQMTSPSSTGSPMFKFSSPIVKSTEANVLPPSSIGFTFSVPVAKTAELSGSSSTLEPIISSSAHHVTTVNSTNCKKTPPEDCEGPFRPAEILKEGSVLDILKSPGFASPKIDSVAAQPTATSPVVYTRPAISSFSSSGIGFGESLKAGSSWQCDTCLLQNKVTDNKCIACQAAKLSPRDTAKQTGIETPNKSGKTTLSASGTGFGDKFKPVIGTWDCDTCLVQNKPEAIKCVACETPKPGTCVKRALTLTVVSESAETMTASSSSCTVTTGTLGFGDKFKRPIGSWECSVCCVSNNAEDNKCVSCMSEKPGSSVPASSSSTVPVSLPSGGSLGLEKFKKPEGSWDCELCLVQNKADSTKCLACESAKPGTKSGFKGFDTSSSSSNSAASSSFKFGVSSSSSGPSQTLTSTGNFKFGDQGGFKIGVSSDSGSINPMSEGFKFSKPIGDFKFGVSSESKPEEVKKDSKNDNFKFGLSSGLSNPVSLTPFQFGVSNLGQEEKKEELPKSSSAGFSFGTGVINSTPAPANTIVTSENKSSFNLGTIETKSASVAPFTCKTSEAKKEEMPATKGGFSFGNVEPASLPSASVFVLGRTEEKQQEPVTSTSLVFGKKADNEEPKCQPVFSFGNSEQTKDENSSKSTFSFSMTKPSEKESEQPAKATFAFGAQTSTTADQGAAKPVFSFLNNSSSSSSTPATSAGGGIFGSSTSSSNPPVATFVFGQSSNPVSSSAFGNTAESSTSQSLLFSQDSKLATTSSTGTAVTPFVFGPGASSNNTTTSGFGFGATTTSSSAGSSFVFGTGPSAPSASPAFGANQTPTFGQSQGASQPNPPGFGSISSSTALFPTGSQPAPPTFGTVSSSSQPPVFGQQPSQSAFGSGTTPNSSSAFQFGSSTTNFNFTNNSPSGVFTFGANSSTPAASAQPSGSGGFPFNQSPAAFTVGSNGKNVFSSSGTSFSGRKIKTAVRRRK [NUP153]”, the “solubility in G1/S (log2)” value (HeLa Kyoto [1]) was -0.682, the melting temperature (HeLa Kyoto [2]; cell cycle stage: G1/S) was 52.8 °C and the melting temperature (HeLa Kyoto [2]; cell cycle stage: mitosis) was 52.6 °C. The “solubility change mitosis (log2)” value (HeLa Kyoto [3]) was 0.507, the thermal stability score (HeLa Kyoto [4]; [5]) was -5.41 and the thermal stability score (HeLa Kyoto [4]; cell cycle stage: mitosis) was -3.58.

In the case of “MASGGSGGVSVPALWSEVNRYGQNGDFTRALKTVNKILQINKDDVTALHCKVVCLIQNGSFKEALNVINTHTKVLANNSLSFEKAYCEYRLNRIENALKTIESANQQTDKLKELYGQVLYRLERYDECLAVYRDLVRNSQDDYDEERKTNLSAVVAAQSNWEKVVPENLGLQEGTHELCYNTACALIGQGQLNQAMKILQKAEDLCRRSLSEDTDGTEEDPQAELAIIHGQMAYILQLQGRTEEALQLYNQIIKLKPTDVGLLAVIANNIITINKDQNVFDSKKKVKLTNAEGVEFKLSKKQLQAIEFNKALLAMYTNQAEQCRKISASLQSQSPEHLLPVLIQAAQLCREKQHTKAIELLQEFSDQHPENAAEIKLTMAQLKISQGNISKACLILRSIEELKHKPGMVSALVTMYSHEEDIDSAIEVFTQAIQWYQNHQPKSPAHLSLIREAANFKLKYGRKKEAISDLQQLWKQNPKDIHTLAQLISAYSLVDPEKAKALSKHLPSSDSMSLKVDVEALENSAGATYIRKKGGKVTGDSQPKEQGQGDLKKKKKKKKGKLPKNYDPKVTPDPERWLPMRERSYYRGRKKGKKKDQIGKGTQGATAGASSELDASKTVSSPPTSPRPGSAATVSASTSNIIPPRHQKPAGAPATKKKQQQKKKKGGKGGW [SRP72]”, the “solubility in G1/S (log2)” value (HeLa Kyoto [1]) was -0.278, the melting temperature (HeLa Kyoto [2]; cell cycle stage: G1/S) was 50.5 °C and the melting temperature (HeLa Kyoto [2]; cell cycle stage: mitosis) was 49.7 °C. The “solubility change mitosis (log2)” value (HeLa Kyoto [3]) was 0.328, the thermal stability score (HeLa Kyoto [4]; [5]) was -0.0233 and the thermal stability score (HeLa Kyoto [4]; cell cycle stage: mitosis) was 0.35.

With “MASGRDERPPWRLGRLLLLMCLLLLGSSARAAHIKKAEATTTTTSAGAEAAEGQFDRYYHEEELESALREAAAAGLPGLARLFSIGRSVEGRPLWVLRLTAGLGSLIPEGDAGPDAAGPDAAGPLLPGRPQVKLVGNMHGDETVSRQVLIYLARELAAGYRRGDPRLVRLLNTTDVYLLPSLNPDGFERAREGDCGFGDGGPSGASGRDNSRGRDLNRSFPDQFSTGEPPALDEVPEVRALIEWIRRNKFVLSGNLHGGSVVASYPFDDSPEHKATGIYSKTSDDEVFKYLAKAYASNHPIMKTGEPHCPGDEDETFKDGITNGAHWYDVEGGMQDYNYVWANCFEITLELSCCKYPPASQLRQEWENNRESLITLIEKVHIGVKGFVKDSITGSGLENATISVAGINHNITTGRFGDFYRLLVPGTYNLTVVLTGYMPLTVTNVVVKEGPATEVDFSLRPTVTSVIPDTTEAVSTASTVAIPNILSGTSSSYQPIQPKDFHHHHFPDMEIFLRRFANEYPNITRLYSLGKSVESRELYVMEISDNPGVHEPGEPEFKYIGNMHGNEVVGRELLLNLIEYLCKNFGTDPEVTDLVHNTRIHLMPSMNPDGYEKSQEGDSISVIGRNNSNNFDLNRNFPDQFVQITDPTQPETIAVMSWMKSYPFVLSANLHGGSLVVNYPFDDDEQGLATYSKSPDDAVFQQIALSYSKENSQMFQGRPCKNMYPNEYFPHGITNGASWYNVPGGMQDWNYLQTNCFEVTIELGCVKYPLEKELPNFWEQNRRSLIQFMKQVHQGVRGFVLDATDGRGILNATISVAEINHPVTTYKTGDYWRLLVPGTYKITASARGYNPVTKNVTVKSEGAIQVNFTLVRSSTDSNNESKKGKGASSSTNDASDPTTKEFETLIKDLSAENGLESLMLRSSSNLALALYRYHSYKDLSEFLRGLVMNYPHITNLTNLGQSTEYRHIWSLEISNKPNVSEPEEPKIRFVAGIHGNAPVGTELLLALAEFLCLNYKKNPAVTQLVDRTRIVIVPSLNPDGRERAQEKDCTSKIGQTNARGKDLDTDFTNNASQPETKAIIENLIQKQDFSLSVALDGGSMLVTYPYDKPVQTVENKETLKHLASLYANNHPSMHMGQPSCPNKSDENIPGGVMRGAEWHSHLGSMKDYSVTYGHCPEITVYTSCCYFPSAARLPSLWADNKRSLLSMLVEVHKGVHGFVKDKTGKPISKAVIVLNEGIKVQTKEGGYFHVLLAPGVHNIIAIADGYQQQHSQVFVHHDAASSVVIVFDTDNRIFGLPRELVVTVSGATMSALILTACIIWCICSIKSNRHKDGFHRLRQHHDEYEDEIRMMSTGSKKSLLSHEFQDETDTEEETLYSSKH [CPD]” the “solubility in G1/S (log2)” value (HeLa Kyoto [1]) was 0.211, the melting temperature (HeLa Kyoto [2]; cell cycle stage: G1/S) was 55.5 °C and the melting temperature (HeLa Kyoto [2]; cell cycle stage: mitosis) was 53.8 °C. For the same sequence, the “solubility change mitosis (log2)” value (HeLa Kyoto [3]) was -0.0862, the thermal stability score (HeLa Kyoto [4]; [5]) was -2.91 and the thermal stability score (HeLa Kyoto [4]; cell cycle stage: mitosis) was -3.88.

“MASGRRAPRTGLLELRAGAGSGAGGERWQRVLLSLAEDVLTVSPADGDPGPEPGAPREQEPAQLNGAAEPGAGPPQLPEALLLQRRRVTVRKADAGGLGISIKGGRENKMPILISKIFKGLAADQTEALFVGDAILSVNGEDLSSATHDEAVQVLKKTGKEVVLEVKYMKDVSPYFKNSTGGTSVGWDSPPASPLQRQPSSPGPTPRNFSEAKHMSLKMAYVSKRCTPNDPEPRYLEICSADGQDTLFLRAKDEASARSWATAIQAQVNTLTPRVKDELQALLAATSTAGSQDIKQIGWLTEQLPSGGTAPTLALLTEKELLLYLSLPETREALSRPARTAPLIATRLVHSGPSKGSVPYDAELSFALRTGTRHGVDTHLFSVESPQELAAWTRQLVDGCHRAAEGVQEVSTACTWNGRPCSLSVHIDKGFTLWAAEPGAARAVLLRQPFEKLQMSSDDGASLLFLDFGGAEGEIQLDLHSCPKTIVFIIHSFLSAKVTRLGLLA [SNTA1]” was tested, and the “solubility in G1/S (log2)” value (HeLa Kyoto [1]) was 0.0927, the melting temperature (HeLa Kyoto [2]; cell cycle stage: G1/S) was 51.2 °C and the melting temperature (HeLa Kyoto [2]; cell cycle stage: mitosis) was 49.2 °C. For the same sequence, the “solubility change mitosis (log2)” value (HeLa Kyoto [3]) was -0.136, the thermal stability score (HeLa Kyoto [4]; [5]) was -0.161 and the thermal stability score (HeLa Kyoto [4]; cell cycle stage: mitosis) was 0.249.
